{
  "source": "paper PMC10213764",
  "about": "(Acta Pharmaceutica Sinica. B, 2023)",
  "origin": "cited, not measured here",
  "conditions": "continuous agitation, 37 °C",
  "data": [
    {"substance": "native insulin: Native insulin was purchased from Life Technologies", "values": [
      {"measurement": "time free from aggregation, formulated with CB[7]‒PEG conjugate", "result": "> 100", "unit": "days"}
    ]}
  ]
}
